What follows are binders tested against T1, CD3 epsilon homodimer protein (UniProt P07766 23-126) (assay: SPR, CD3 epsilon homodimer on chip, one-arm antibody as analyte;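 note: surface plasmon resonance at 25 °C with CD3 epsilon homodimer amine-coupled to a CM4 sensor chip, antibody injected as analyte, HBS-EP+ as running buffer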).
T1 construct: also called CD3 (CD3 epsilon)
T1 sequence (P07766 23-126): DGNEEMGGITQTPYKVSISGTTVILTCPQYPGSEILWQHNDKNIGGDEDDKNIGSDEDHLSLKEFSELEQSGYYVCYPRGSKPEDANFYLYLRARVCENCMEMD

Binder	KD ratio (KD of CE115HA000/KD of altered form)
CE115HA000 D72A (antibody, human IgG1, kappa, L234A L235A, N297A, name in Kabat numbering, one-arm antibody) heavy: QVQLVESGGGVVQPGRSLRLSCAASGFTFSNAWMHWVRQAPGKGLEWVAQIKAKSNNYATYYAESVKGRFTISRADSKNSLYLQMNSLKTEDTAVYYCRYVHYGAYYGVDAWGQGTTVTVSSASTKGPSVFPLAPSSKSTSGGTAALGCLVKDYFPEPVTVSWNSGALTSGVHTFPAVLQSSGLYSLSSVVTVPSSSLGTQTYICNVNHKPSNTKVDKKVEPKSCDKTHTCPPCPAPEAAGGPSVFLFPPKPKDTLMISRTPEVTCVVVDVSHEDPEVKFNWYVDGVEVHNAKTKPREEQYASTYRVVSVLTVLHQDWLNGKEYKCKVSNKALPAPIEKTISKAKGQPREPQVYTLPPSRCELTKNQVSLSCAVKGFYPSDIAVEWESNGQPENNYKTTPPVLDSDGSFFLVSKLTVDKSRWQQGNVFSCSVMHEALHNHYTQKSLSLSPDYKDDDDK EPKSSDKTHTCPPCPAPELLGGPSVFLFPPKPKDTLMISRTPEVTCVVVDVSHEDPEVKFNWYVDGVEVHNAKTKPREEQYNSTYRVVSVLTVLHQDWLNGKEYKCKVSNKALPAPIEKTISKAKGQPREPQVCTLPPSRDELTKNQVSLWCLVKGFYPSDIAVEWESNGQPENNYKTTPPVLDSDGSFFLYSKLTVDKSRWQQGNVFSCSVMHEALHNRYTQKSLSLSP light: DIVMTQSPLSLPVTPGEPASISCRSSQSLVHSNRNTYLHWYQQKPGQAPRLLIYKVSNRFSGVPDRFSGSGSGTDFTLKISRVEAEDVGVYYCGQGTQVPYTFGQGTKLEIKRTVAAPSVFIFPPSDEQLKSGTASVVCLLNNFYPREAKVQWKVDNALQSGNSQESVTEQDSKDSTYSLSSTLTLSKADYEKHKVYACEVTHQGLSSPVTKSFNRGEC	1.19
CE115HA000 D73A (antibody, human IgG1, kappa, L234A L235A, N297A, name in Kabat numbering, one-arm antibody) heavy: QVQLVESGGGVVQPGRSLRLSCAASGFTFSNAWMHWVRQAPGKGLEWVAQIKAKSNNYATYYAESVKGRFTISRDASKNSLYLQMNSLKTEDTAVYYCRYVHYGAYYGVDAWGQGTTVTVSSASTKGPSVFPLAPSSKSTSGGTAALGCLVKDYFPEPVTVSWNSGALTSGVHTFPAVLQSSGLYSLSSVVTVPSSSLGTQTYICNVNHKPSNTKVDKKVEPKSCDKTHTCPPCPAPEAAGGPSVFLFPPKPKDTLMISRTPEVTCVVVDVSHEDPEVKFNWYVDGVEVHNAKTKPREEQYASTYRVVSVLTVLHQDWLNGKEYKCKVSNKALPAPIEKTISKAKGQPREPQVYTLPPSRCELTKNQVSLSCAVKGFYPSDIAVEWESNGQPENNYKTTPPVLDSDGSFFLVSKLTVDKSRWQQGNVFSCSVMHEALHNHYTQKSLSLSPDYKDDDDK EPKSSDKTHTCPPCPAPELLGGPSVFLFPPKPKDTLMISRTPEVTCVVVDVSHEDPEVKFNWYVDGVEVHNAKTKPREEQYNSTYRVVSVLTVLHQDWLNGKEYKCKVSNKALPAPIEKTISKAKGQPREPQVCTLPPSRDELTKNQVSLWCLVKGFYPSDIAVEWESNGQPENNYKTTPPVLDSDGSFFLYSKLTVDKSRWQQGNVFSCSVMHEALHNRYTQKSLSLSP light: DIVMTQSPLSLPVTPGEPASISCRSSQSLVHSNRNTYLHWYQQKPGQAPRLLIYKVSNRFSGVPDRFSGSGSGTDFTLKISRVEAEDVGVYYCGQGTQVPYTFGQGTKLEIKRTVAAPSVFIFPPSDEQLKSGTASVVCLLNNFYPREAKVQWKVDNALQSGNSQESVTEQDSKDSTYSLSSTLTLSKADYEKHKVYACEVTHQGLSSPVTKSFNRGEC	0.73
CE115HA000 D72V (antibody, human IgG1, kappa, L234A L235A, N297A, name in Kabat numbering, one-arm antibody) heavy: QVQLVESGGGVVQPGRSLRLSCAASGFTFSNAWMHWVRQAPGKGLEWVAQIKAKSNNYATYYAESVKGRFTISRVDSKNSLYLQMNSLKTEDTAVYYCRYVHYGAYYGVDAWGQGTTVTVSSASTKGPSVFPLAPSSKSTSGGTAALGCLVKDYFPEPVTVSWNSGALTSGVHTFPAVLQSSGLYSLSSVVTVPSSSLGTQTYICNVNHKPSNTKVDKKVEPKSCDKTHTCPPCPAPEAAGGPSVFLFPPKPKDTLMISRTPEVTCVVVDVSHEDPEVKFNWYVDGVEVHNAKTKPREEQYASTYRVVSVLTVLHQDWLNGKEYKCKVSNKALPAPIEKTISKAKGQPREPQVYTLPPSRCELTKNQVSLSCAVKGFYPSDIAVEWESNGQPENNYKTTPPVLDSDGSFFLVSKLTVDKSRWQQGNVFSCSVMHEALHNHYTQKSLSLSPDYKDDDDK EPKSSDKTHTCPPCPAPELLGGPSVFLFPPKPKDTLMISRTPEVTCVVVDVSHEDPEVKFNWYVDGVEVHNAKTKPREEQYNSTYRVVSVLTVLHQDWLNGKEYKCKVSNKALPAPIEKTISKAKGQPREPQVCTLPPSRDELTKNQVSLWCLVKGFYPSDIAVEWESNGQPENNYKTTPPVLDSDGSFFLYSKLTVDKSRWQQGNVFSCSVMHEALHNRYTQKSLSLSP light: DIVMTQSPLSLPVTPGEPASISCRSSQSLVHSNRNTYLHWYQQKPGQAPRLLIYKVSNRFSGVPDRFSGSGSGTDFTLKISRVEAEDVGVYYCGQGTQVPYTFGQGTKLEIKRTVAAPSVFIFPPSDEQLKSGTASVVCLLNNFYPREAKVQWKVDNALQSGNSQESVTEQDSKDSTYSLSSTLTLSKADYEKHKVYACEVTHQGLSSPVTKSFNRGEC	1.17
CE115HA000 D72E (antibody, human IgG1, kappa, L234A L235A, N297A, name in Kabat numbering, one-arm antibody) heavy: QVQLVESGGGVVQPGRSLRLSCAASGFTFSNAWMHWVRQAPGKGLEWVAQIKAKSNNYATYYAESVKGRFTISREDSKNSLYLQMNSLKTEDTAVYYCRYVHYGAYYGVDAWGQGTTVTVSSASTKGPSVFPLAPSSKSTSGGTAALGCLVKDYFPEPVTVSWNSGALTSGVHTFPAVLQSSGLYSLSSVVTVPSSSLGTQTYICNVNHKPSNTKVDKKVEPKSCDKTHTCPPCPAPEAAGGPSVFLFPPKPKDTLMISRTPEVTCVVVDVSHEDPEVKFNWYVDGVEVHNAKTKPREEQYASTYRVVSVLTVLHQDWLNGKEYKCKVSNKALPAPIEKTISKAKGQPREPQVYTLPPSRCELTKNQVSLSCAVKGFYPSDIAVEWESNGQPENNYKTTPPVLDSDGSFFLVSKLTVDKSRWQQGNVFSCSVMHEALHNHYTQKSLSLSPDYKDDDDK EPKSSDKTHTCPPCPAPELLGGPSVFLFPPKPKDTLMISRTPEVTCVVVDVSHEDPEVKFNWYVDGVEVHNAKTKPREEQYNSTYRVVSVLTVLHQDWLNGKEYKCKVSNKALPAPIEKTISKAKGQPREPQVCTLPPSRDELTKNQVSLWCLVKGFYPSDIAVEWESNGQPENNYKTTPPVLDSDGSFFLYSKLTVDKSRWQQGNVFSCSVMHEALHNRYTQKSLSLSP light: DIVMTQSPLSLPVTPGEPASISCRSSQSLVHSNRNTYLHWYQQKPGQAPRLLIYKVSNRFSGVPDRFSGSGSGTDFTLKISRVEAEDVGVYYCGQGTQVPYTFGQGTKLEIKRTVAAPSVFIFPPSDEQLKSGTASVVCLLNNFYPREAKVQWKVDNALQSGNSQESVTEQDSKDSTYSLSSTLTLSKADYEKHKVYACEVTHQGLSSPVTKSFNRGEC	0.73
CE115HA000 D73G (antibody, human IgG1, kappa, L234A L235A, N297A, name in Kabat numbering, one-arm antibody) heavy: QVQLVESGGGVVQPGRSLRLSCAASGFTFSNAWMHWVRQAPGKGLEWVAQIKAKSNNYATYYAESVKGRFTISRDGSKNSLYLQMNSLKTEDTAVYYCRYVHYGAYYGVDAWGQGTTVTVSSASTKGPSVFPLAPSSKSTSGGTAALGCLVKDYFPEPVTVSWNSGALTSGVHTFPAVLQSSGLYSLSSVVTVPSSSLGTQTYICNVNHKPSNTKVDKKVEPKSCDKTHTCPPCPAPEAAGGPSVFLFPPKPKDTLMISRTPEVTCVVVDVSHEDPEVKFNWYVDGVEVHNAKTKPREEQYASTYRVVSVLTVLHQDWLNGKEYKCKVSNKALPAPIEKTISKAKGQPREPQVYTLPPSRCELTKNQVSLSCAVKGFYPSDIAVEWESNGQPENNYKTTPPVLDSDGSFFLVSKLTVDKSRWQQGNVFSCSVMHEALHNHYTQKSLSLSPDYKDDDDK EPKSSDKTHTCPPCPAPELLGGPSVFLFPPKPKDTLMISRTPEVTCVVVDVSHEDPEVKFNWYVDGVEVHNAKTKPREEQYNSTYRVVSVLTVLHQDWLNGKEYKCKVSNKALPAPIEKTISKAKGQPREPQVCTLPPSRDELTKNQVSLWCLVKGFYPSDIAVEWESNGQPENNYKTTPPVLDSDGSFFLYSKLTVDKSRWQQGNVFSCSVMHEALHNRYTQKSLSLSP light: DIVMTQSPLSLPVTPGEPASISCRSSQSLVHSNRNTYLHWYQQKPGQAPRLLIYKVSNRFSGVPDRFSGSGSGTDFTLKISRVEAEDVGVYYCGQGTQVPYTFGQGTKLEIKRTVAAPSVFIFPPSDEQLKSGTASVVCLLNNFYPREAKVQWKVDNALQSGNSQESVTEQDSKDSTYSLSSTLTLSKADYEKHKVYACEVTHQGLSSPVTKSFNRGEC	0.78
CE115HA000 D73E (antibody, human IgG1, kappa, L234A L235A, N297A, name in Kabat numbering, one-arm antibody) heavy: QVQLVESGGGVVQPGRSLRLSCAASGFTFSNAWMHWVRQAPGKGLEWVAQIKAKSNNYATYYAESVKGRFTISRDESKNSLYLQMNSLKTEDTAVYYCRYVHYGAYYGVDAWGQGTTVTVSSASTKGPSVFPLAPSSKSTSGGTAALGCLVKDYFPEPVTVSWNSGALTSGVHTFPAVLQSSGLYSLSSVVTVPSSSLGTQTYICNVNHKPSNTKVDKKVEPKSCDKTHTCPPCPAPEAAGGPSVFLFPPKPKDTLMISRTPEVTCVVVDVSHEDPEVKFNWYVDGVEVHNAKTKPREEQYASTYRVVSVLTVLHQDWLNGKEYKCKVSNKALPAPIEKTISKAKGQPREPQVYTLPPSRCELTKNQVSLSCAVKGFYPSDIAVEWESNGQPENNYKTTPPVLDSDGSFFLVSKLTVDKSRWQQGNVFSCSVMHEALHNHYTQKSLSLSPDYKDDDDK EPKSSDKTHTCPPCPAPELLGGPSVFLFPPKPKDTLMISRTPEVTCVVVDVSHEDPEVKFNWYVDGVEVHNAKTKPREEQYNSTYRVVSVLTVLHQDWLNGKEYKCKVSNKALPAPIEKTISKAKGQPREPQVCTLPPSRDELTKNQVSLWCLVKGFYPSDIAVEWESNGQPENNYKTTPPVLDSDGSFFLYSKLTVDKSRWQQGNVFSCSVMHEALHNRYTQKSLSLSP light: DIVMTQSPLSLPVTPGEPASISCRSSQSLVHSNRNTYLHWYQQKPGQAPRLLIYKVSNRFSGVPDRFSGSGSGTDFTLKISRVEAEDVGVYYCGQGTQVPYTFGQGTKLEIKRTVAAPSVFIFPPSDEQLKSGTASVVCLLNNFYPREAKVQWKVDNALQSGNSQESVTEQDSKDSTYSLSSTLTLSKADYEKHKVYACEVTHQGLSSPVTKSFNRGEC	0.56
